# Measurements as given in patent publication US7893197B2, “Relaxin-3 chimeric polypeptides and their preparation and use” (Janssen Pharmaceutica N.V., priority 2005, dated 2011).
# Biological target: T1, LGR7 (Homo sapiens, UniProt Q9HBX9)
# T1 construct: Human LGR7 cDNA containing the complete coding region was PCR amplified; expressed in transfected cells
# T1 sequence (Q9HBX9 1-757): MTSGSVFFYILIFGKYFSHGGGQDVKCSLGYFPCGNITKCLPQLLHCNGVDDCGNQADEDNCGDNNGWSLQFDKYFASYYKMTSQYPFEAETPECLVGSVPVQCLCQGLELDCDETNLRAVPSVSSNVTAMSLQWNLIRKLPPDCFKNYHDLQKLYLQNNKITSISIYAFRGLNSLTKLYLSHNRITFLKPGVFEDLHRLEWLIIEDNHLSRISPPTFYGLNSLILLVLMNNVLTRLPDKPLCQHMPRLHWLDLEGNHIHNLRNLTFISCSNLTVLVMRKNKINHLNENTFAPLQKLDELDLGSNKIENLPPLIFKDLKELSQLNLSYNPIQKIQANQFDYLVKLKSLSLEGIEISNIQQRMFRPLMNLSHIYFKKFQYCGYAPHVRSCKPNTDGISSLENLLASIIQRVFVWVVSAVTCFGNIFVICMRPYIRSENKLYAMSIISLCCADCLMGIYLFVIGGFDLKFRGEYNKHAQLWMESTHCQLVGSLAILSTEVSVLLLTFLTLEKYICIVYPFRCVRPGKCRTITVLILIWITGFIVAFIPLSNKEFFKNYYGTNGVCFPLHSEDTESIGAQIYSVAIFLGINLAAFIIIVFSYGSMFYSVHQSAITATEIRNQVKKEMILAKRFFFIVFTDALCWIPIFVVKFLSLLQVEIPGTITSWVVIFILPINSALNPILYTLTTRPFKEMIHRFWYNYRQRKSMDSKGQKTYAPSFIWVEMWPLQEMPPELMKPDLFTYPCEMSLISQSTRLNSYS
# Assay: Stimulation of β-galactosidase expression in SK-N-MC/β-gal cells
# Type: cell-based
# Method: FIGS. 1A-1D show the activation of GPCR135 and GPCR142 by relaxin-3 B-chain, but not of LGR7 or LGR8. In FIG. 1A, SK-N-MC/β-gal cells expressing human GPCR135 were stimulated with relaxin-3, relaxin-3 B-chain, porcine relaxin, or INSL3 at various concentrations to inhibit the forskolin stimulated β-galactosidase expression. Forskolin was added to cells at a final concentration of 5 μM to stimulate the β-galactosidase expression. FIG. 1B depicts results for SK-N-MC/β-gal cells expressing human GPCR142 stimulated as in FIG. 1A. In FIG. 1C, SK-N-MC/β-gal cells expressing human LGR7 were stimulated with relaxin-3, relaxin-3 B-chain, porcine relaxin, and INSL3 at various concentrations to induce the β-galactosidase expression. The intracellular β-galactosidase activities were measured by a colorimetric assay using CRGP as the substrate and reading the absorbance at a wavelength of 570 nm. For FIG. 1D, SK-N-MC/β-gal cells expressing human LGR8 were stimulated as in FIG. 1C.
# FIGS. 4A-4D illustrate the evaluation of the agonist activity of relaxin-3 chimeric polypeptides in biofunctional assays. Different chimeric polypeptides at various concentrations were added to SK-N-MC/β-gal cells expressing human GPCR135 (FIG. 4A) or GPCR142 (FIG. 4B) to inhibit forskolin stimulated β-galactosidase expression. Human relaxin-3 was used as the positive control. In parallel, chimeric polypeptides at various concentrations were added to SK-N-MC/β-gal cells expressing human LGR7 (FIG. 4C) and LGR8 (FIG. 4D) to stimulate β-galactosidase expression. Relaxin-3 and INSL3 were used as positive controls for LGR7 and LGR8, respectively. Intracellular β-galactosidase activity was measured by a colorimetric assay using CRGP as the substrate and reading the absorbance at wavelength of 570 nm. Data represent mean±SEM (n=3).
# It has been shown that synthetic human relaxin-3 B-chain alone, but not A-chain, is an agonist for both GPCR135 and GPCR142 (Liu et al., 2003, Journal of Biological Chemistry, 278:50754-50764 and Liu et al., 2003, Journal of Biological Chemistry, 278:50765-50770). Those studies were repeated herein in SK-N-MC/β-gal cells, which harbor a β-galactosidase gene under the control of a cAMP responsive element (CRE) (Liu et al., 2001, Molecular Pharmacology, 59:420-426). In such SK-N-MC/β-gal cells, an increase in intracellular cAMP concentration leads to increased β-galactosidase gene expression, the activity of which is measured using Chlorophenol Red-β-D-Galactopyranoside (CPRG) as the substrate.
# The inventive chimeric polypeptides were each independently tested for their ability to activate either GPCR135, GPCR142, LGR7, or LGR8, respectively, in separate pools of SK-N-MC/β-gal cells (see supra), each pool stably expressing one of the respective receptors, as indicated (FIG. 4).
# Cells were seeded in 96-well tissue culture plate at a density of 30,000 cells/well in MEM plus 10% fetal serum, sodium pyruvate, penicillin, streptomycin, and G418 (400 mg/L). For cells expressing GPCR135 or GPCR142, forskolin was added to cells at a final concentration of 5 μM to stimulate intracellular cAMP accumulation. Different concentrations of each of the inventive polypeptides were then added to the cells to inhibit the forskolin induced cAMP accumulation. For cells expressing LGR7 or LGR8, intracellular cAMP was stimulated with each of the inventive chimeric polypeptides at various concentrations.
# For all cells, after adding the chimeric polypeptides, cells were incubated for 6 additional hours in 37° C. incubator. The media was then aspirated and the β-galactosidase activities measured as previously described (Liu et al., 2001, Molecular Pharmacology, 59:420-426). The results were analyzed by Prism 3.0 software. […]
substance,measurement,value
R3/I4: chimeric polypeptide: human relaxin-3 B-chain and INSL4 A-chain; mature polypeptide SEQ ID NO:22 (RAAPYGVRLCGREFIRAVIFTCGGSRWFDPFCCEVICDDGTSVKLC; Human Relaxin-3/Insulin-like 4 chimeric mature polypeptide),"activation of LGR7, in words",no activity
